We go through one protein from patent publication US20030153020.

In this data set the target is T1, LPXTG peptide DABCYL-QALPETGEE-EDANS.
T1 chain: QALPETGEE

B1: SrtADN (SrtA in which the NH2-terminal membrane anchor segment is replaced with a six histidine tag) (protein)
chain: KPHIDNYLHDKDKDEKIEQYDKNVKEQASKDKKQQAKPQIPKDKSKVAGYIEIPDADIKEPVYPGPATPEQLNRGVSFAEENESLDDQNISIAGHTFIDRPNYQFTNLKAAKKGSMVYFKVGNETRKYKMTSIRDVKPTDVGVLDEQKGKDKQLTLITCDDYNEKTGVWEKRKIFVATEVK
Turning to B1, the “LPXTG peptide cleavage activity of MTSET-inactivated SrtADN after 10 mM DTT” value is “restored 80% of LPXTG peptide cleavage activity”, the “cleavage of LPXTG peptide in the presence of 0.2 M NH2OH (fluorescence)” value was “Addition of 0.2 M NH2OH to this reaction resulted in an increase in fluorescence”, the “cleavage of LPXTG peptide measured as an increase in fluorescence” value was “SrtADN catalyzed cleavage of the substrate” and the “hydroxylaminolysis of LPXTG peptide after pre-incubation with MTSET” value is listed as “pre-incubation with MTSET abolished all enzymatic activity”.
